Each block holds one substance with its values, some of them ahead of it.
Experiments:
[1] = target: full length (FL) human gp130 over-expressed on HEK293/Stat3-luc/gp130-2X Sort cells (human) (UniProt P40189); assay: FACS, secondary antibody alone, 293/Stat3-luc/GP130 2X sort cells
[2] = target: gp130 expressed endogenously on IMR-32/STAT3-Luc cells (human) (UniProt P40189); assay: FACS, secondary antibody alone, IMR-32/Stat3-luc cells, no hGP130.mmh
[3] = target: gp130 expressed endogenously on IMR-32/STAT3-Luc cells (human) (UniProt P40189); assay: FACS, secondary antibody alone, IMR-32/Stat3-luc cells, 1 uM hGP130.mmh present
[4] = target: full length human GP130 (leucine at position 2 changed to valine) on HEK293/Stat3-luc/gp130-2X Sort cells (human) (UniProt P40189); assay: FACS, 200 nM antibody, HEK293/gp130 2X Sort cells
Chain of full length human GP130 (leucine at position 2 changed to valine) on HEK293/Stat3-luc/gp130-2X Sort cells (human) (P40189 23-918): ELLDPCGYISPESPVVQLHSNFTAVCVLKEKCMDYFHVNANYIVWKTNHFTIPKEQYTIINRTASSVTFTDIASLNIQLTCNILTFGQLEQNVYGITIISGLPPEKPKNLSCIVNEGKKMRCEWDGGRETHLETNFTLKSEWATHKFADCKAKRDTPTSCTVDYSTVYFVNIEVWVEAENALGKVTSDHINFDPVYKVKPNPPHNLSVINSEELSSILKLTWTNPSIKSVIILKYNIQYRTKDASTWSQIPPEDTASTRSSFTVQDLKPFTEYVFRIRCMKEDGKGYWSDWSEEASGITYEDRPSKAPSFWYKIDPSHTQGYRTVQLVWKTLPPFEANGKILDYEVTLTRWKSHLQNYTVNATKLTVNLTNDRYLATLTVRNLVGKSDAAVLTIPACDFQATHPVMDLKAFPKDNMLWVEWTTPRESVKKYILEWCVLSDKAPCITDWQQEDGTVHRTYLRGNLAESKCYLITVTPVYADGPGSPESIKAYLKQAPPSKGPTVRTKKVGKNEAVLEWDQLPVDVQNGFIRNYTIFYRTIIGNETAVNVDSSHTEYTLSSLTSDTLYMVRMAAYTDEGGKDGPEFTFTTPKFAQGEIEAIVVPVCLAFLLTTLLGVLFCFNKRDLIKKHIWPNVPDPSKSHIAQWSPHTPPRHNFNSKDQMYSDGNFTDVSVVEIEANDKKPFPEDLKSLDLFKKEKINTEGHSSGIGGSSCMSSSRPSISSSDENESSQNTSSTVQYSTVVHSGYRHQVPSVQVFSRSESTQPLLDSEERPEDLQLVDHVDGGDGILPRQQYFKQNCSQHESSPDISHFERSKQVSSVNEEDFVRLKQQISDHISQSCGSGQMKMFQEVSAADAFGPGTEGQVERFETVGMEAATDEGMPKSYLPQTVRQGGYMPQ

[5] = target: extracellular domain of human LEPR, GPI-anchored on HEK293/hLEPR-GPI cells (human) (UniProt P48357); assay: FACS, 200 nM antibody, HEK293/hLEPR-GPI cells, No Leptin
Chain of extracellular domain of human LEPR, GPI-anchored on HEK293/hLEPR-GPI cells (human) (P48357 22-839 limits assumed): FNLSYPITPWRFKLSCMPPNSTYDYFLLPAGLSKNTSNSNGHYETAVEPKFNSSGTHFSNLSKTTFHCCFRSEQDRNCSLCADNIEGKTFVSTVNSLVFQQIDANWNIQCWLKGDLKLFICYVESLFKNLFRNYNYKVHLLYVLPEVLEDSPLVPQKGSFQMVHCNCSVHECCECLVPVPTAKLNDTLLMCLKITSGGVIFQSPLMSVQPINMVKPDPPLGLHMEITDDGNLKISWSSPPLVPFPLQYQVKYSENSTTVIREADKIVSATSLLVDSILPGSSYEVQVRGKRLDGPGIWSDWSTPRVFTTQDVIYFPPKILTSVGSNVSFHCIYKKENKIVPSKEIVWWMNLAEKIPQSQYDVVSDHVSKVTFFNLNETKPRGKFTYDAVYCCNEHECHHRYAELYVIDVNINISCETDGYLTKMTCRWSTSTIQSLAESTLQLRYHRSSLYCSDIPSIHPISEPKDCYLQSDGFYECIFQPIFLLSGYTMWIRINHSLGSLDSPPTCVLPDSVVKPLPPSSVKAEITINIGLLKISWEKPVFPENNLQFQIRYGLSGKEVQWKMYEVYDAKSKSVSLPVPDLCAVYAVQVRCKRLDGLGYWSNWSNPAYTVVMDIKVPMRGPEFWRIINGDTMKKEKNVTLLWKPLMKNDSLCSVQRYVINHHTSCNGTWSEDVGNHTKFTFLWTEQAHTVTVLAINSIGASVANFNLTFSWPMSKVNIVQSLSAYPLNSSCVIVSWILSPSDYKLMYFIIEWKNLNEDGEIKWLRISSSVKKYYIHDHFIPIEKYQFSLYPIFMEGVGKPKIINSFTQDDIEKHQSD

[6] = target: extracellular domain of human LEPR, GPI-anchored on HEK293/hLEPR-GPI cells (human) (UniProt P48357); assay: FACS, 200 nM antibody, HEK293/hLEPR-GPI cells, 1 µM Leptin present
[7] = target: gp130 expressed endogenously on IMR-32/STAT3-Luc cells (human) (UniProt P40189); assay: cell-based or functional assay
[8] = target: full length human GP130 (leucine at position 2 changed to valine) on HEK293/Stat3-luc/gp130-2X Sort cells (human) (UniProt P40189); assay: FACS, secondary antibody only, HEK293/gp130 2X Sort cells
[9] = target: extracellular domain of human LEPR, GPI-anchored on HEK293/hLEPR-GPI cells (human) (UniProt P48357); assay: FACS, secondary antibody only, HEK293/hLEPR-GPI cells, No Leptin
[10] = target: extracellular domain of human LEPR, GPI-anchored on HEK293/hLEPR-GPI cells (human) (UniProt P48357); assay: FACS, secondary antibody only, HEK293/hLEPR-GPI cells, 1 µM Leptin present

Chain of gp130 expressed endogenously on IMR-32/STAT3-Luc cells (human) (P40189 23-918): as the sequence (P40189 23-918) above
Chain of full length (FL) human gp130 over-expressed on HEK293/Stat3-luc/gp130-2X Sort cells (human) (P40189 23-918): as above

MFI - Normalized to Unstained Control [1]: 2 | MFI - Normalized to Unstained Control [2]: 4 | MFI - Normalized to Unstained Control [3]: 8
Substance: a-h 2″ alone (antibody)

Binding Ratio: Normalized to Unstained Sample of Each Cell Line (FL4-A) [4]: 2 | Binding Ratio: Normalized to Unstained Sample of Each Cell Line (FL4-A) [5]: 3 | Binding Ratio: Normalized to Unstained Sample of Each Cell Line (FL4-A) [6]: 3
Substance: Isotype Control (antibody)

EC50 of activation of IMR-32/STAT3-luc cells (STAT3-luciferase) [7]: 23 pM
Substance: human Leukemia Inhibitory Factor (from UniProt P15018 23-202) (ligand)

Binding Ratio: Normalized to Unstained Sample of Each Cell Line (FL4-A) [8]: 1 | Binding Ratio: Normalized to Unstained Sample of Each Cell Line (FL4-A) [9]: 3 | Binding Ratio: Normalized to Unstained Sample of Each Cell Line (FL4-A) [10]: 2
Substance: Secondary antibody alone
